According to the domain aggregation screens of Martell et al. (2025):

Test: soluble fraction after stress (log2 fold change); higher = more stays soluble; pooled small domains, quantitative proteomics
Details: stress: pH 4
Outline: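 After pH 4 stress, pooled custom libraries of small protein domains were quantified with high-throughput quantitative proteomics. Aggregation propensity is taken from the fold change in each domain's soluble amount following the acid stress. The scale is log2, where higher values mean more stayed soluble.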

| Sequence | soluble fraction (log2) |
| --- | --- |
| HMRLDVALRGVLLDGDPTQSRAFVLVSGTTSTYRLGETVQSAELVAINADTITLRTETGLHVIGFDGLI | -2.11 |
| HMEFSYLEEIGHEKGDLIKGLQLIQQKEGYVSDDAVRAVAENFGMSPAEVEGVLTFYAQFKR | -1 |
| HMRQISDPTALASMVDKVIEDNPSAVADYRRGESKALGFLIGRVMQSSGGKANPKMIRGLLVKNLES | 0.371 |
| HMQPPLTPRELGVLQWAAEGKTTRDTSAILQIHQRTVEMHLKSAREKLDALNTTHAVARALAHGFILPPS | 0.102 |
| HMQVQHVWNRLKRPNGDVLYEINRDHPLVSASLDAAADRGAIETLLRQIEQSLPVNQLYVDMNADEHFE | -0.812 |
| HMEMTGAHLRKKIRAKGFTFQQIADAIGESKQNLSQILSTNNIKTGTLERIAAAMGESVSYF | 0.167 |
| HMQELKWERNYKLVQDYIKQYGVLPSKNTKYANVSIGRWLTNQHELVKEDNLAPERFEKIKELDT | 0.303 |
| HMTVKKLIINEDNSGRRIDNYLLSIFNSVPRSKIYNIIRKGEVRVNSSRIKPSYRLEEGDQVRIPPNLDYT | -0.0871 |
| HMVSKSDVQRALEKVEPVLRKLGGSTVEKVRVMARQATLVFEMLKSWWKGEIDLPWKTVAAMTVTLLYL | -0.322 |
| HMSKSPELMEKIKEFAEGYFRENGETPSNKTIAGAMGMGRSTVYYYLVDMAQRGMISYENGVISTEKIRKL | -0.65 |
| HMRTIVSELNDIKGISDASAKKLLIRYGSFEAVREAVMKHEEEFELDMGKRITGALTRYFYEE | 0.223 |
| HMSRSLLAALEKLRESHTGSLPASVLSSAQRRSLESFAQTTKSVQMRPSGRGVVFAIINPEVVDKHWRELS | 0.22 |
| HMNIGELINKKRTELGLTLEEVGNAVGVSKSTVKKWEDGFISNMRRDKISKLAKVLEMNPVSLITGE | -0.0212 |
| HMGKAPREVQVGELLRVPALNAEGEVLRRDGESVELSIQGKKLRLPLAQLEAFSPRRFARRGEGKVRGRIE | 0.266 |
| HMEFDVELTSFEEAKKLKVIKEVKDVTGLSLGEAKDLVMGAPKAIKTGVSKEEAEAIKTQIEAAGAVVTI | -0.699 |
| HMDTEIGDILALRQIMELLDEKDRQLIIMRYFQGLTQSVTAKNLNMTQVQVSRREKKLLTFMREQLL | -0.761 |
| HMQKLNIEEQIVYDIIFKNKELSANEIQIKSGIKTSILNALLINLEIKQYIKLKFGNFYEIK | -1.63 |
| HMNISALKGKIGEVYLKIPAHNAGKGKVLISLKGTHHELYAITRSGEDISSGEFVKVIEIEDEILVVEK | -0.537 |
| HMNQTGQYENAAKRFNQLITIDSSDKRAYLQLGISNYNLGNKEKADSLFNIIRNSKDKLLIEELDNFLT | -0.169 |
| HMTAFAGLTPRERDLLELIAQGRDNAQIAATLGVSDKTVRNHITHIFAKLEVETRAQAIVLARNAGFGRA | -0.0568 |
| HMQAITVNNEGKIFLNTIPVTLEELSSKLESLKSSTPEFPVVIRGDSGSQYQGIMDVLNVVGRLGITQIGL | -1.08 |
| HMDAINITTYKGQITLTGTKTGTLVGIYNTAGMLVKSMMSKGEKLYFDNLPSGVYIIKVGEEEPRKVQVI | ≥ 0.43 |
| HMTENLELLATGSLWTEPDGSGKIISYLIPGLRVKKLETNGIFYKIQLQNGLIGWADQSLFTIAEPK | -0.212 |
| HMQSYSTIIGVIELRLSGIGYRTTKARYGIGNSTVTLIMNRFKETGFTLDDLKTMEPTKVEALFYPP | -0.229 |
| HMQRLSRREIEVLHWIAEGKSDWQIGQILSISAKTVNYHTENLKRKFGVATRMQAVVSAIKQGAFVPGE | -1.31 |
| HMRNLFWTEAQNAQNELNAMRINALTQSIRRIEPNFRGIPSLRDPNRPIPNEEVRDYENYLNRILP | 0.126 |

| Sequence | soluble fraction (log2) |
| --- | --- |
| HMGDLAAAGNHTLEVMGFPQHPDESYRHFVGNGIPKLIERMLPAGHDKETEQKAYDIFMEYYSAHK | -0.439 |
| HMNTLRFPEGTPEKDRMSIILASYNSGIGHVNDARRLARLNGEDPNSWEVVARYLQLKAQPEYYESEAVK | -0.548 |
| HMLPSWLPTDAWEAFLEARVAMKARPTERAKGLLLGELSKLVSQGQDARAVLEQSVQRGWRGLFPVK | 0.0676 |
| HMDSQKKNETLSSTADEIIKNYAGKRDLSEESMEQLEQFQKDMRGADVNIFTAAQIRMLDQIFQENLH | 0.0679 |
| HMLWTHIALPVRSLDDTMAFYDKYTTLENIHERQDPETNMRSVWLANPGDKTEQAARFVLVLI | -0.126 |
| HMIFNENLKSAREKKGLSQKEVAEAIGVAKSTYSLYESGNREPNVQTIKRIADVLNVSADVLLGL | 0.332 |
| HMADLTIDGVEYTKVSPTGTLTLEKVYTKNVTPADGQYYIQTGTKTVRVATDAEVAVIKAGGF | 0.247 |
| HMSVKIELNENEQAIFTAVQKVNEAVLPELRAQFSDMSNKAWDNSVKMLTKNNLLKVSKEGEILYIRM | 0.0421 |
| HMEEILLSVKADGTYWVDQKEVTLDEVGALLDKEPDRLLNIFMDEKVPVRHFINVVDIAKVKREGRFII | -1.74 |
| HMAATSTGFPGVEVRGNSIRVFFMYKRDRHAHTLPLEPTRNNIKHADQLRSAALFALRNGTYNEADFFPHS | -0.509 |
| HMVDEAQSLERNVLLTVLSRIGRDSRVVLTHDIAQRDNLRVGRHDGVVAVVDRLKGHPLFAHVTL | -0.0346 |
| HMGFLTGNTQGEVNRKTKNQMVNIFLPTTPNPTSGFLLFVPKKDILRLTMTVEEGIKMIISAGMLTPS | 0.0322 |
| HMQVTDADFDQIRLAVLSQLKQNSLTVAELLKIIPFKEQKVMPVIRFLIDNRVLEHGTDMKLTVGNSVK | -0.34 |
| HMSGYSTLFTRMSREDAQAVVSLLQDDGIEYRYNDDTGTVQVPSATVDQTRAKLVSAGYPRS | -0.303 |
| HMQAALEVQASAGVLAPVPPDQRQALLDTLAQDPRPGYQHEAGRVYGFPFGGFEVRFTVSDGLLTVLSAYK | -1.16 |
| HMINVGYKFKQIRENAGLTLKQVSAMSGLSVSFISQIERGVVDPSWSSLKKISAALNIKLKDLF | -0.449 |
| HMVNPHPVYRSWGLLYVEARDGDSLESIAKEFGFSVKKLAKYNEVPKDYPLEAGDIVYLEKKKK | 0.019 |
| HMRRHLLEMNDAIGRLGRLISEDPADRDVAEVIWAALRGMVMGQMIMNEPIDWQRERRTLVEMAIGR | 0.119 |
| HMYQRLPFSFANRYKMVLESQHPERAPILYYVEPLKSAAIIEVSRVVKNGFTPQAITLDEFDKKLTDAYQR | -0.0881 |
| HMENIEVDFGVGDTVSVIGGAWKDTVGVVQAMNPNKQSLTINVELFGRETPVEISFTDVQKM | -0.962 |
| HMRDLITYVVQINGKLRGKLEVAPDTDPEELKALALEVENVKRSLEGWVVKKVIVVPGKMVSIAAG | -0.105 |
| HMDTLTRAMVWTIIARAEGVDTTGGATWYAKAQEWVTAKGISDGENPNAAITRQELVTMLYRLAGEPAV | -0.681 |
| HMNNWRRSLEREVTASLARGDRDIFDGLNRSFEAALITKALEHTGGRRIEAATLLGIGRNTLTRKIQDLGL | -0.79 |
| HMKRELFVEPGMRLEHTPSKTSGPVVSFIEGVIVVIKDQLGSEHRFDPVPGFFRHEGDLVALRSPLL | 0.044 |
| HMNQNIYVPKLEGLQIEEASSILKSKGLNIEITDSIFRKDAVPGAIIEQTPKPNSRVKTGRNIYVSIYSK | -0.199 |
| HMWGAYHDGQVVKFPKKVTVYVIDGQYKRPLANEFVLKFLNYKTSDIIIDKDGNLNNYKNGAVVEH | -0.332 |

| Sequence | soluble fraction (log2) |
| --- | --- |
| HMQDTIDLVIQVNGKLRGQMNVPKDTDRATIEQLAINLENVQKIVAGNAIKKIIIVPGRLINIVVSKNL | -0.209 |
| HMPNQIKQIAVNTASVSDIATIPGISFDFAKEIWEFRILRQKIGSLSELQKIEGMTASKYALIELYLHI | -0.41 |
| HMASVGTHIKRLRAAKRMTQEELAEQLHVTRQAVSAWETGKALPDVEMLERIAAALDADVTEVIYGA | -0.24 |
| HMLFKNASGTVVSRIQSQVDGQINIRTGSGNAPDYAFVAKPDGAVELYHNGTKQFETGSSGVLLP | -0.527 |
| HMSTLGIRIKHYRTDSNLTQKELAGLINVKRDALANWETDRALPDVMNLKKLAEVFQVSTDELLQV | -0.225 |
| HMDTGPSFATRRQEAFNALTQIAASNKEFMNVAGDVLWKVADFPEAQILAQRWRRIIPPNVLGEA | -0.438 |
| HMTRRGPLTEGDRVQVRDPKGRFHQVILVRGGRFQSNRGGFNHDDVIGRPDGQVIITDEGRQFQIL | 0.0981 |
| HMPPSGPWEQDPPSEAQLKPFNEAMKRTADIDVDLYEKAKKALNDGTITKGNIYDWINREDSPWVLQDGS | -0.468 |
| HMASAEDDLTRRARKLLTTSSMLKTLQPDTGERLQWLPQVVRLLAEGVEAPRIVVLIRRAMESG | -0.00608 |
| HMSIVVPDLRGKTLEEARAILKEADLDFEINDSTFSKTARPGTIRDVVPSPGSRVKAGRILFISINGF | -0.0618 |
| HMSQDLVVLGDSMLNNALKAFHIDPNAIKKKYWDKLILDYHLKSKEEVLTEIALGKKINVMVAHQLTSIMD | -0.238 |
| HMGPSVGMTVGEMERDLIFRTLETVGDNRTKAADMLGISIRTLRNKLNEYREAGFEWPRKAG | -0.0611 |
| HMNERIKSLRKALGLTQQEFADKLGISRGNIGAYEVGKNAPSDAVISLIVRIFNTNENWLRTGEGEM | -0.246 |
| HMSQEILSNQSIKDMIELGFEEQTIIDKIQTSTSDFDTTIEELKALKQLGASPTILSAMIKSIKK | -1.97 |
| HMRGGLATLTPRERQVLALMAEGRSNAGIAAELVVSGGAVEKHVASIFTKLGLPPDESDNRRVLAVLRHLG | -0.186 |
| HMVNIPEIAKKFGKSTSEVFEQIQIGEKHEMEHTNDPKKARKIALDHLSDDMDYYKKLKKLG | ≥ 0.43 |
| HMAIDVQELARTRLRSLRTTLGYSLDELAARTHLSPSTISRLETGKRSLSLDVVVPLAQALHVSLDVLFEA | -0.666 |
| HMGVGIAEAMKHVADEDYGDLSSEFQRIFSAVDGGSTLGDAVRAQMRATSSAGLRRTLSVLAMSVE | -0.314 |
| HMVNINEVEVSRDLAHAKVFVTFVGDRTDEINTQALKVLNAAQGFLRSRIASNNHMRTTPRIHF | -0.214 |
| HMEDVPYMIKLPSHHYLTKMVDGSTGWSLVQNSNTVVGSSKEELLKQYPEYEDFIVQEPLNV | -0.336 |
| HMTPAIEKTAVIVFINGKKYYVHTVKSGETLYSIAKAYKVDEKVIKEHNPNVADGLRIDQTVKIPVPEQVK | -0.0592 |
| HMYDAEAINKFFDIENWDFGETFYFQELSAYIMNQLSPKLVTILIVPRQTTQAFGSLFEIKSEPDEIFAS | -0.0578 |
| HMALSETIYRLRTEHGLSQGDLAAELDVSRQSISKWETGSSVPELDKLVAMSRLFGVSLDELVLGE | -0.584 |
| HMEAADAGTLAQRAAQYFNEKNYAAALDALERRAAMAPETTELRMMRGWSLLHLNRKDEARNAFATLG | -0.188 |
